According to paper PMC8688422:

Key:
galectin-1 C3S = galectin-1 C3S (UniProt P09382)
galectin-1 = galectin-1 (UniProt P09382); assay: SPR; BIAcore 1000, galectin-1 amine-coupled to CM5 chip, analyte injected at different concentrations, 25 °C, HBS-EP (10 mM HEPES, 150 mM NaCl, 3 mM EDTA, 0.005% P20) pH 7.4; single association, biphasic dissociation

fluorescence anisotropy: binding affinity of galectin-1 C3S for the fluorescein-tagged tdga-probe with 8 µM CXCL4 against galectin-1 alone (galectin-1 C3S): 10 fold | fluorescence anisotropy: inhibitory potency of asialofetuin (ASF) on the galectin-1 C3S/tdga-probe interaction with 8 µM CXCL4 against without (galectin-1 C3S): > 600 fold | K1 (kd1/ka) (galectin-1): 9 µM | K2 (kd2/ka) (galectin-1): 483 nM | kd1 (first phase of the biphasic dissociation) (galectin-1): 0.092 s⁻¹ | kd2 (second phase of the biphasic dissociation) (galectin-1): 0.005 s⁻¹ | kon (galectin-1): 10200 M⁻¹ s⁻¹ | stoichiometry N (CXCL4 per galectin-1) (galectin-1): 2
Substance: platelet factor 4 (PF4/CXCL4) (ligand)
